Data: the Immune Epitope Database (IEDB)

Columns and labels:
HLA-A*01:01 [1] = assay: IEDB peptide-MHC binding, purified MHC/competitive/fluorescence; ≥ and ≤ were set here for values at or beyond the usual limits of such assays; conditions: source organism: Mus musculus
HLA-A*25:01 = assay: as above; conditions: source organism: Mus musculus
HLA-A*02:06 [2] = assay: IEDB peptide-MHC binding, purified MHC/competitive/fluorescence; filed as Kd, often an IC50 or EC50 that approximates it; ≥ and ≤ were set here for values at or beyond the usual limits of such assays
HLA-A*02:01 [3] = assay: as above
HLA-A*02:03 [4] = assay: as above
HLA-A*30:01 [5] = assay: as above; conditions: source organism: Human immunodeficiency virus 1
HLA-B*15:01 [6] = assay: as above
HLA-A*26:03 = assay: as above
HLA-A*26:01 = assay: as above
HLA-B*39:01 = assay: as above; conditions: source organism: Human immunodeficiency virus 1
HLA-B*35:01 = assay: as above; conditions: source organism: Vaccinia virus WR
HLA-A*01:01 [7] = assay: as above; conditions: source organism: Vaccinia virus WR
HLA-B*57:01 = assay: as above; conditions: source organism: Vaccinia virus WR
HLA-B*27:05 [8] = assay: as above; conditions: source organism: Vaccinia virus WR
HLA-A*26:02 = assay: as above; conditions: source organism: Vaccinia virus WR
HLA-A*30:01 [9] = assay: IEDB peptide-MHC binding, purified MHC/competitive/radioactivity; filed as Kd, often an IC50 or EC50 that approximates it; ≥ and ≤ were set here for values at or beyond the usual limits of such assays; conditions: source organism: Vaccinia virus WR
HLA-B*07:02 = assay: IEDB peptide-MHC binding, purified MHC/direct/fluorescence; filed as Kd, often an IC50 or EC50 that approximates it; ≥ and ≤ were set here for values at or beyond the usual limits of such assays
HLA-B*48:01 = assay: as above; conditions: source organism: Camelpox virus M-96
HLA-A*03:01 = assay: as above
HLA-A*69:01 = assay: as above
HLA-B*08:02 = assay: as above
HLA-B*58:01 = assay: as above
HLA-A*68:02 = assay: as above; conditions: source organism: Camelpox virus M-96
HLA-B*15:17 = assay: as above; conditions: source organism: Camelpox virus M-96
HLA-B*40:01 = assay: as above
HLA-A*11:01 = assay: as above; conditions: source organism: Camelpox virus M-96
HLA-A*31:01 = assay: as above; conditions: source organism: Camelpox virus M-96
HLA-B*46:01 = assay: as above
HLA-A*80:01 = assay: as above
HLA-A*02:01 [10] = assay: IEDB peptide-MHC binding, cellular MHC/competitive/fluorescence; ≥ and ≤ were set here for values at or beyond the usual limits of such assays; conditions: source organism: Homo sapiens
HLA-A*01:01 [11] = assay: IEDB peptide-MHC binding, purified MHC/direct/fluorescence; filed as Kd, often an IC50 or EC50 that approximates it; ≥ and ≤ were set here for values at or beyond the usual limits of such assays
HLA-A*30:01 [12] = assay: as above; conditions: source organism: Bacillus cereus NVH0597-99
HLA-A*02:12 = assay: as above; conditions: source organism: Influenza A virus H3N2
HLA-A*02:06 [13] = assay: as above; conditions: source organism: Influenza A virus H3N2
HLA-A*02:01 [14] = assay: as above; conditions: source organism: Influenza A virus (A/Puerto Rico/8/34/Mount Sinai(H1N1))
HLA-B*44:02 = assay: as above; conditions: source organism: Influenza A virus (A/turkey/Minnesota/1200/1980(H7N3))
HLA-A*02:19 = assay: as above; conditions: source organism: Influenza A virus H3N2
HLA-A*02:03 [15] = assay: as above; conditions: source organism: Influenza A virus H3N2
HLA-A*02:11 = assay: as above; conditions: source organism: Influenza A virus H3N2
HLA-B*15:01 [16] = assay: as above; conditions: source organism: Influenza A virus (A/turkey/Minnesota/1200/1980(H7N3))
HLA-B*27:05 [17] = assay: as above; conditions: source organism: Influenza A virus (A/turkey/Minnesota/1200/1980(H7N3))
HLA-B*08:01 = assay: as above; conditions: source organism: Influenza A virus (A/turkey/Minnesota/1200/1980(H7N3))
HLA-A*24:02 = assay: as above; conditions: source organism: Influenza A virus (A/turkey/Minnesota/1200/1980(H7N3))
[18] = source organism: Human immunodeficiency virus 1
[19] = source organism: Vaccinia virus WR
[20] = source organism: Camelpox virus M-96
[21] = source organism: Bacillus anthracis
[22] = source organism: Influenza A virus (A/turkey/Minnesota/1200/1980(H7N3))

With FSSCPVAY the IC50 (HLA-A*01:01 [1]) was 1940 nM and the IC50 (HLA-A*25:01) was no less than 20000 nM.
KLKSLYNTV was tested, and the Kd (HLA-A*02:06 [2]; [18]) was 17.4 nM, the Kd (HLA-A*02:01 [3]; [18]) was 26.1 nM and the Kd (HLA-A*02:03 [4]; [18]) was 13.1 nM. The Kd (HLA-A*30:01 [5]) was 1.3 nM, the Kd (HLA-B*15:01 [6]; [18]) was no less than 20000 nM and the Kd (HLA-A*26:03; [18]) was no less than 20000 nM. The Kd (HLA-A*26:01; [18]) was no less than 20000 nM and the Kd (HLA-B*39:01) was no less than 20000 nM.
For KVFDKSLLY, the Kd (HLA-B*35:01) was 8.2 nM, the Kd (HLA-A*01:01 [7]) was 2480 nM and the Kd (HLA-A*02:06 [2]; [19]) was 3100 nM. It also gave a Kd (HLA-A*02:01 [3]; [19]) of no less than 20000 nM, a Kd (HLA-A*02:03 [4]; [19]) of no less than 20000 nM and a Kd (HLA-B*15:01 [6]; [19]) of 374 nM. The Kd (HLA-B*57:01) was 424 nM, the Kd (HLA-B*27:05 [8]) was no less than 20000 nM and the Kd (HLA-A*26:02) was 1990 nM. For the same sequence, the Kd (HLA-A*26:03; [19]) was no less than 20000 nM, the Kd (HLA-A*26:01; [19]) was 1750 nM and the Kd (HLA-A*30:01 [9]) was 71 nM. For the same sequence, the Kd (HLA-B*07:02; [20]) was no less than 20000 nM, the Kd (HLA-B*48:01) was no less than 20000 nM and the Kd (HLA-A*03:01; [20]) was 35 nM. For the same sequence, the Kd (HLA-A*69:01; [20]) was no less than 20000 nM, the Kd (HLA-B*08:02; source organism: Variola virus) was no less than 20000 nM and the Kd (HLA-B*58:01; source organism: Variola virus) was 5 nM. The Kd (HLA-A*68:02) was no less than 20000 nM, the Kd (HLA-B*15:17) was 2.3 nM and the Kd (HLA-B*40:01; [20]) was no less than 20000 nM. It also gave a Kd (HLA-A*11:01) of 4 nM, a Kd (HLA-A*31:01) of 2760 nM and a Kd (HLA-B*46:01; [20]) of no less than 20000 nM.
Work on RVERIKSEY yielded a Kd (HLA-A*80:01; source organism: Yellow fever virus) of 33.8 nM.
SPSVDKARAEL gave an IC50 (HLA-A*02:01 [10]) of no less than 200000 nM.
Sequence TTLRYPIGK has a Kd (HLA-A*01:01 [11]; [21]) of no less than 20000 nM, a Kd (HLA-A*80:01; [21]) of no less than 20000 nM and a Kd (HLA-A*30:01 [12]) of 81 nM.
Work on VTTEVAFGL yielded a Kd (HLA-B*07:02; [22]) of no less than 20000 nM, a Kd (HLA-A*01:01 [11]; [22]) of no less than 20000 nM and a Kd (HLA-A*02:12) of 186 nM. The Kd (HLA-A*03:01; [22]) was no less than 20000 nM, the Kd (HLA-A*02:06 [13]) was no more than 1 nM and the Kd (HLA-A*02:01 [14]) was 69 nM. It also gave a Kd (HLA-A*69:01; [22]) of no less than 20000 nM, a Kd (HLA-B*08:02; source organism: Influenza A virus H3N2) of no less than 20000 nM and a Kd (HLA-B*58:01; [22]) of 494 nM. The Kd (HLA-B*44:02) was no less than 20000 nM, the Kd (HLA-A*02:19) was 656 nM and the Kd (HLA-A*02:03 [15]) was 517 nM. It also gave a Kd (HLA-A*02:11) of no more than 1 nM, a Kd (HLA-B*15:01 [16]) of no less than 20000 nM and a Kd (HLA-B*27:05 [17]) of no less than 20000 nM. For the same sequence, the Kd (HLA-B*40:01; source organism: Influenza A virus (A/Puerto Rico/8/34/Mount Sinai(H1N1))) was 15000 nM, the Kd (HLA-B*08:01) was no less than 20000 nM and the Kd (HLA-A*24:02) was no less than 20000 nM. For the same sequence, the Kd (HLA-B*46:01; [22]) was no less than 20000 nM.
